In US20200216495A1 (ADRX, published 2020):
Several values for one entry are separate records, joined by “and”; a condition that tells them apart may be missing. Equal entries are not always repeated. Square brackets hold non-standard residues; d marks the D form. Ends that are not written are not given here. dMet(O) = CS(=O)CC[C@@H](N)C(=O)O

Tests used:
[1] = biological target: Tau40 P301L protein (human); experiment: cell-based or functional assay
[2] = biological target: Ac-VQIINK-NH2 (SEQ ID NO: 23) (N-terminal acetyl (Ac); C-terminal amide (NH2)); experiment: cell-based or functional assay

Binder	IC50, Tau40 assay (ThT) [1]	VQIINK Inhibition IC50 [2] [µm]
[dT][dR][dL][dR][dI][dH][dW] [trlrihw]	2.7 µM	–
[dW][dR][dL][dK][dV][dD][dW] [wrlkvdw]	2.7 µM	–
[dL][dE][dL][dK][dI][dK][dF][dW] [lelkikfw]	2.73 µM and 2.85 µM	–
[dL][dK][dL][dK][dI][dK][dH][dF] [lklkikhf]	2.75 µM	–
[dF][dK][dI][dR][dI][dH][dY][dH] [fkirihyh]	2.76 µM	–
[dW][dR][dL][dT][dI][dH][dW] [wrltihw]	2.76 µM	–
[dW][dD][dL][dK][dV][dR][dW] [wdlkvrw]	2.76 µM	–
[dW][dR][dL][dR][dI][dF][dW] [wrlrifw, listing 1 of 2 here]	2.79 µM	–
[dW][dK][dL][dV][dV][dW] [wklvvw]	2.81 µM	–
[dL][dK][dI][dMet(O)][dI][dH][dY] [lkixihy]	2.81 µM	–
[dW][dH][dV][dK][dF][dE][dL][dF] [whvkfelf]	2.88 µM	–
[dL][dK][dI][dR][dI][dH][dA] [lkiriha]	2.92 µM	–
[dK][dI][dK][dI][dK][dW] [kikikw]	2.92 µM	–
[dL][dK][dI][dY][dI][dH][dY] [lkiyihy]	2.93 µM	–
[dW][dK][dL][dW][dL][dR][dW][dW] [wklwlrww]	2.94 µM	–
[dR][dL][dR][dI][dR][dW] [rlrirw]	2.96 µM	–
[dL][dK][dI][dA][dI][dH][dY] [lkiaihy]	2.96 µM	–
[dR][dK][dI][dR][dI][dH][dY][dH] [rkirihyh]	–	5.59
[dR][dT][dL][dK][dI][dV][dW][dR] [rtlkivwr]	–	5.65
[dM][dR][dL][dK][dV][dR][dW] [mrlkvrw]	–	5.67
[dW][dR][dL][dK][dV][dR][dE][dW] [wrlkvrew]	–	5.77

Binder	IC50, Tau40 assay (ThT) [1]	VQIINK Inhibition IC50 [2] [µm]
[dW][dR][dL][dR][dI][dF][dW] [wrlrifw, listing 2 of 2 here]	–	6.33
[dW][dR][dR][dK][dV][dR][dW][dW] [wrrkvrww]	–	6.43
[dW][dR][dL][dA][dI][dH][dW] [wrlaihw]	–	6.49
[dW][dR][dL][dM][dI][dH][dW] [wrlmihw]	–	6.58
[dA][dR][dL][dR][dI][dH][dW] [arlrihw]	–	6.61
[dL][dK][dV][dR][dW][dW] [lkvrww]	–	6.63
[dE][dL][dK][dI][dV][dW] [elkivw]	–	6.85
[dK][dL][dK][dW][dL][dW] [klkwlw]	–	6.93
[dK][dL][dK][dI][dV][dW] [klkivw]	–	6.95
[dW][dR][dL][dK][dV][dR][dR][dW] [wrlkvrrw]	–	7.04
[dK][dI][dR][dI][dH][dY][dH][dL] [kirihyhl]	–	7.25
[dW][dR][dL][dR][dI][dH][dT] [wrlriht]	–	7.32
[dW][dR][dE][dK][dV][dR][dW][dW] [wrekvrww]	–	7.34
[dL][dK][dI][dR][dI][dH][dR][dH] [lkirihrh]	–	7.35
[dW][dR][dL][dR][dI][dH][dM] [wrlrihm]	–	7.39
[dL][dK][dI][dR][dI][dE][dY][dH] [lkirieyh]	–	7.95
[dW][dF][dL][dR][dI][dH][dW] [wflrihw]	–	8.18
[dW][dR][dL][dK][dT][dR][dW] [wrlktrw]	–	8.61
[dI][dR][dI][dH][dY][dH][dL][dK] [irihyhlk]	–	8.69
[dA][dK][dI][dR][dI][dH][dY][dH] [akirihyh]	–	8.93
[dW][dR][dL][dR][dM][dH][dW] [wrlrmhw]	–	8.93

Binder	IC50, Tau40 assay (ThT) [1]	VQIINK Inhibition IC50 [2] [µm]
[dV][dR][dW][dW][dW][dR][dL][dK] [vrwwwrlk]	–	9.47
[dW][dR][dL][dR][dI][dH][dA] [wrlriha]	–	9.75
[dL][dK][dA][dR][dI][dH][dY][dH] [lkarihyh]	–	10
[dL][dK][dI][dR][dR][dH][dY][dH] [lkirrhyh]	–	10.5
[dR][dI][dK][dI][dR][dW] [rikirw]	–	10.8
[dR][dL][dK][dI][dR][dW] [rlkirw]	–	10.9
[dW][dE][dL][dK][dV][dE][dW] [welkvew]	–	11
[dW][dR][dM][dR][dI][dH][dW] [wrmrihw]	–	11.7
[dR][dR][dL][dR][dI][dH][dW] [rrlrihw]	–	12.1
[dW][dR][dT][dK][dT][dR][dW] [wrtktrw]	–	13.1
[dW][dR][dL][dK][dH][dR][dW] [wrlkhrw]	–	13.5
[dE][dR][dL][dR][dI][dH][dW] [erlrihw]	–	13.6
[dW][dR][dL][dR][dI][dH][dE] [wrlrihe]	–	14.5
[dK][dV][dR][dW][dW][dW][dR][dL] [kvrwwwrl]	–	15.2
[dL][dK][dI][dR][dI][dH][dY] [lkirihy]	–	17.6
[dW][dR][dA][dR][dI][dH][dW] [wrarihw]	–	19.1
[dE][dR][dL][dK][dV][dR][dW][dW] [erlkvrww]	–	20.4
[dW][dR][dL][dK][dV][dR][dA] [wrlkvra]	–	20.5
[dL][dK][dR][dR][dI][dH][dY][dH] [lkrrihyh]	–	31.8
